Measured values taken from the supplement of paper PMC12764529.
± gives the half width of the 95% confidence interval.

assay: folding stability dG unfold (combined trypsin and chymotrypsin); higher = more stable
Method: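 Folding stability of de novo designed mini-proteins (<80 aa, no Cys; designed by TrROS, TrMRF, ProteinMPNN and the joint model) was measured by cDNA display proteolysis with trypsin and chymotrypsin. Each protease was used at 11 concentrations in a threefold dilution series plus a no-protease condition. K50 was inferred by Bayesian fitting of sequencing counts, and dG unfold was derived against a sequence-predicted unfolded-state K50 (Tsuboyama et al. method). Sequences shown include variable-length N-terminal GS-type padding (SAGGSAGG...) inside a display construct carrying a PA tag. Rows were kept only if the AF2 dimer inter-PAE was >15, to exclude likely homo-oligomers.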

Sequence | folding stability dG unfold [kcal/mol]
SAGGSAGGSAGGMTKTYVTPVSPDVSEEEIKEKLAPEVSSVEVERDEESGTVTITTTLDSAGGSAGGSAGGS [r10_1007_JUSTAS] | < -1
SAGGSAKVTVDEKDLKVTVESNIPVLVTYTLPGGKKKPFAGYLPPEKIEEFAKKEAEKFATELLGKSAGGSA [r15_365_TrMRF] | < -1
SAGVPVDLHHDPKGVELATSTSYTPSGEPVGSSSSTHTVPGTGTPVSVYSPVYDDGAGLITRTYLAKLSAGG [r19_185_JUSTAS] | < -1
SAGGSAGGSMKVELIRTEEGKVVATEFFPVPLLLPGGVPALLEGSRTIKTIPVKDPEKAKELLSAGGSAGGS [r12_915_JUSTAS] | < -1
SAGGNAEEIRDITRDIAEKHGGEVKDVEVEPEPNGRKELTFRMKEDPNTRIKITVDNNEIKITSIQPSAGGS [r8_432_TrROS] | < -1
SAGGSAGGSAKIKLENPDNMPPEELADTIAEEAREQHPDDKNIEIPFQFPNGNPWRITVDVPSAGGSAGGSA [r18_449_TrROS] | < -1
SAGGSAGGSPYKEIPFRFPENGYKVHIKKDPNGSVKIYVMGPNMRERTIPPDEPLEIEPGARLSAGGSAGGS [r12_1003_TrROS] | -0.46 ± 0.63
SAGGSAGGSGMPIVVTHPSGVGLDEYIPEPYVVTMREPDSVIKVTYDPATGTVTTEVDDGAARSAGGSAGGS [r12_243_JUSTAS] | < -1
SAGGSAGGSAIGLKDAVPGIENVAKALGAKAKAELKVLPDGKPYLVAKLYKDGKPLGELKVDSAGGSAGGSA [r18_369_TrMRF] | < -1
SAGGMITVLEEEVEERGDELVVTRLVRVSSEEDVEALANDGVPDTAREVRRLPDGTLLAELTETVPPPSAGG [r13_506_JUSTAS] | < -1
SAGGSAGGSGDKSPPLVPTVTLKTTDPDAVEKAVKAAGVAVTRYPGKGYYTFRKADVEKILKSSAGGSAGGS [r12_325_TrMRF] | < -1
SAGGSAGGSAGGTIEELAEKLPNVDLKPVEPGPGMRRIKAQPPNGKKFTIMVDDGKIHIQSAGGSAGGSAGG [r7_26_TrROS] | < -1
SASSTLTFTLPRYTVNKVYDKEGKPVPVEITPVPTLEVTATTLPDGTVVVTIGDETRTYPPGVSPEELLSAG [r14_909_JUSTAS] | < -1
SAGGSTVVTEVSVSPGNPTLTLDSKTPDGKVVAKRVAAPADATATFEVKQTINGNPVITTVTQAPEASAGGS [r16_672_JUSTAS] | < -1
SAGGSAGGSAGMKKLVKITARVPDEKGNPILVEYEEEVDLKPSDSLPVPEGVLEEIEILESAGGSAGGSAGG [r11_664_JUSTAS] | < -1
SAGMDKPVATFTRQKTPDGTEVLHVTVTTTAAGTGTTDPSTFTFPAGSDPAVVAAKVRAAGVAAVAFEPSAG [r5_37_JUSTAS] | < -1
SAGGSAGGMELVSEERLPDGSRRFTVRVDPDKSLSLTLPDAGEPVAATVTETFPEEGLVTVELASAGGSAGG [r6_177_JUSTAS] | < -1
SAGMPESEVIPLPDGSVVEVRRWPDSELRFVFPPGGPATVERHDTRTGTVETTPVSAADPEAAAAAVLASAG [r5_674_JUSTAS] | < -1
SAGGSAGGSAPEFVVEGSEEEAEAVFERIKAERPEEFEATDISTVSAVPPVPRYTPEGVLVSAGGSAGGSAG [r3_89_JUSTAS] | < -1

Sequence | folding stability dG unfold [kcal/mol]
SNTIMIMANVPPGPVRIKIEPKNGRRYEMPIPPGEPVMFHIPIPPGLPPGNKWKIEVENPDNGKEQEKDFSA [r9_275_TrROS] | < -1
STLENIEYIKLPKNKTLPLPGGETISPDEEIAIDLDKKKYINKEELEELKKKIEEELEKKKPKENPKNLISA [r9_517_JUSTAS] | < -1
SAGGSAGGSAGGSPAFVAPSPDAYLSADPVTGEWEPVPADHVVLSVDPSNGRVTISDPLSAGGSAGGSAGGS [r4_127_TrMRF] | < -1
MRRTLETDEIRRLEIELRPAPGRTAVLDAVVELRDGTPVPLPFPLRLESGRLDPATVERAEREAVEEALARS [r1_124_TrMRF] | < -1
SAGGSAGGSPLYIQIERRNPKNGENQTLELPIPIDGDPSDARDIAKEIAEQLPPNDYKIEVFRSAGGSAGGS [r12_871_TrROS] | < -1
SAGMVKIKIYVENPETGEEKELEIVKEFESEEEAEKEAEKIAKELEKAGYKVKKIEIEVIPLPPLPENPSAG [r5_660_TrMRF] | > 6
SAGGSAGGSAGGMPELEKEGYKVEKFTIFEPDPLKPVGEVTVLTEVPKPKLLEGGSTSGLSAGGSAGGSAGG [r7_959_JUSTAS] | < -1
SAGGSAGGSMSIPSDATLVRTYRRGGEELTVSGSVDPATGTVLSEGSLSKRPDATLTEVSVVSSAGGSAGGS [r12_6_JUSTAS] | < -1
SAGGSAGGSAYFVRIDNGPTIPIPGMSPDEAKEQLKEYLPPPNKENLKITDVYSPDNGKPLSAGGSAGGSAG [r3_340_TrROS] | < -1
SNMPIFVRIEHNDGKEVEIPIKGSREQLKDNIQEEIQEYAQENGHKPRSIKVEVYDFGNNQEQTRTIPVKSA [r9_1193_TrROS] | < -1
SAGGSATTTEKWTIGDPSGPPRTVDLTKLPNSDEYLITVTYPDPNHTETGLLSEEEIKKIPNAVPKSAGGSA [r15_622_JUSTAS] | < -1
SSDDKEEQKKRQKAQAKPKPKMEPVWVPIEVRDPDNGRPFEIPVRMYRTPNGKIEPLPEEELKDWAKDLFSA [r9_1056_TrROS] | < -1
SAGGSAGGSAGGMKVTVETFEGPDFEIVTERSPEGKVKVFTIKPNEVKEEVIPLENPELSAGGSAGGSAGGS [r10_1169_JUSTAS] | < -1
SAGGSAGGSAGGSVIMVNSPEWAKEFAGAMMQEKSRKHGEPMTPDDVPVEIEVYDPEDWSAGGSAGGSAGGS [r4_498_TrROS] | < -1
SAGGSAGGSLVELEEEDPSVPVRRRYFIEKPSDGKVKVKEETVVPEPGEVVRSERVISLEEFEKSAGGSAGG [r6_652_JUSTAS] | < -1
SAGGSAGGVSKVLEVRPAPGSGTYTVRTLREDPATGTTTEEVLTIPTSRPEVVDSLPPDATVELSAGGSAGG [r6_979_JUSTAS] | < -1
SAGGSAGGSAGKYISVDELRKNGDPDEAERVVKKIMEKFPGPKIKPIEWDKDGNHMFKIKSAGGSAGGSAGG [r11_365_TrROS] | < -1
SAGGSAGGSAGPPGEPKPKPERKTVHINIPYPPGHPEMREKARELANELQDEGAKVEIYWSAGGSAGGSAGG [r11_519_TrROS] | < -1
SAGGSAGGSAGTRTINMPNPHQARELIKEQPPGKPITIHMPNPEWAKELADAPGVPIQMHSAGGSAGGSAGG [r11_1071_TrROS] | < -1

Sequence | folding stability dG unfold [kcal/mol]
SAGGSAGGSASAEELAEALRREHPDAEVTVTVTPVPREVGPRPVLEREVTVESVRSPEEPASAGGSAGGSAG [r3_118_JUSTAS] | < -1
SAGGSAGGSGMEPTFVPVEEIYYNPESNEISKTKSTVVIPPDGTVETFTTTEKFKKPPNASLESAGGSAGGS [r12_116_JUSTAS] | < -1
SAGGSAGGSTIPIRDPNREIEIVKHPDNMYRIEIEPNGGKREIILPPEAMQQKPITIEELIDQSAGGSAGGS [r20_90_TrROS] | < -1
SAGGSAGGSAGGGSVTESPSYVVTRSADPAGPALYTVTDLSTGVPSSSTVAPDAPAVVPPSAGGSAGGSAGG [r7_177_JUSTAS] | < -1
SAMSPELEELLAQLKAAAEATTDVSVFATDAAGNLRSIGPVTVTGPATSLAELRPELAARPVARVELVGSAG [r14_318_JUSTAS] | < -1
SAGGSAGGSAGSEKLEKIKEELKKKGYNDVEVKPAGPDPSVVLVKVKENKDIIIKIENEESAGGSAGGSAGG [r11_765_JUSTAS] | < -1
SAGGSAGGSAGGMITVKDPATGKWREVTPEELEEVLAANPGPITVEREGGRRTVPAALLSAGGSAGGSAGGS [r10_839_JUSTAS] | < -1
SAGGSAGGSAGGPEGQWIDMDVEHNPKNNKLTIKFPDSGKPITIPANNIERVGDYIRINSAGGSAGGSAGGS [r10_942_TrROS] | < -1
SAGGSAGGSPPKPITIMAPYDSPEEAMDKAEEIADELANEGYDIKDVEIEYHPNNGYAMVRIRSAGGSAGGS [r20_155_TrROS] | < -1
SAGGSAGGSAGIKIPSNYKYKIEKSKDDYYEIYTEDKNKKFIVPKNAPIVVFEDNTVYVKSAGGSAGGSAGG [r17_49_TrMRF] | < -1
SAGGSAGGGKVPKPVPGPLTILFDVAEDELPPEEIRKLFPDAKVYRFPKGLRVTVPVNGKLVPGSAGGSAGG [r6_738_TrMRF] | < -1
SAGGSAGGSEVTEFTGTIEDPNSSTVIEVKTKVIPLPNGTPVTITETTTTTGEKTTTTTTTFASAGGSAGGS [r12_619_JUSTAS] | < -1
SAPEVSVEEEEEEITDPVTGEKTTVYKITTKITLPDPNSSKKVTLTKPVIVEKTKSGTKVTEKPVFLLLSAG [r14_339_JUSTAS] | < -1
SAGGSAPDFKIKDIKIPHRRNPNGMYRVEIKLEVPDGRKIPIEVPYNEDGKPTPEQIENAAKELAKSAGGSA [r15_233_TrROS] | < -1
SAGGSMTELIPTPPSATTLNVTKTVPDPRTGTTVTTNVTVEVVPEGDGYVATVYYDPSGRPVKRSLSAGGSA [r2_123_JUSTAS] | < -1
SAGGSAGGSASMRTITITSSTSPSGPPLPAAELAAELAKEGYTVTDPRRVPAEGKLVFTVVASAGGSAGGSA [r18_466_JUSTAS] | < -1
SYPRDPSGKITAKITITRDPDGIYRAEIDVVDKDNKPLARASAPYENPYPGVARLKEEAEALAEELEKKKSA [r9_739_TrMRF] | < -1
SAGGSAGGSAGGTDKVKEKLAPGRDITVLKIDPTDSVVNVTVKSPDSDVDTVVEVDPELISAGGSAGGSAGG [r7_303_JUSTAS] | < -1
SAGGSAGGSAGGELVLPELNKPLNVEKEEVVVEGGEEVVKIKATGSGKPFEYVVPKGLGSAGGSAGGSAGGS [r10_517_JUSTAS] | < -1
